Target: β subunit of DNA polymerase III of Escherichia coli (UniProt P0A988)
Sequence (P0A988 whole entry): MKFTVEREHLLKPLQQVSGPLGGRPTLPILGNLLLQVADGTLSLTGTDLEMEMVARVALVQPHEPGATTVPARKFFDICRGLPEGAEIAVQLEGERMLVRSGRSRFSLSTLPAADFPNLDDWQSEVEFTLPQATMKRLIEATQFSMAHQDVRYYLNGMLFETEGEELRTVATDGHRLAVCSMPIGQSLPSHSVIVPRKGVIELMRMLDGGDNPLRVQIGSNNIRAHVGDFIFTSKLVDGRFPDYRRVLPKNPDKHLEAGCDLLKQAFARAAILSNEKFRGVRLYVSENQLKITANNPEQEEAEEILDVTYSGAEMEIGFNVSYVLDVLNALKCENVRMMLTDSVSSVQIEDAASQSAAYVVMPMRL

Pol IVD5 mutant of Pol IV lacking the 5 C-terminal amino-acids
growth rate (OD 600 nm) of E. coli on IPTG-induced expression: a clear growth inhibition was observed for the culture expressing the wild type Pol IV protein compared to the one expressing the mutant protein

— patent US20070275898
